Data reported in doi:10.1101/2024.03.21.586168 (bioRxiv, 2024).

T1: recombinant CD135 (Flt3) (UniProt Q00342 28-544)
T1 sequence (looked up): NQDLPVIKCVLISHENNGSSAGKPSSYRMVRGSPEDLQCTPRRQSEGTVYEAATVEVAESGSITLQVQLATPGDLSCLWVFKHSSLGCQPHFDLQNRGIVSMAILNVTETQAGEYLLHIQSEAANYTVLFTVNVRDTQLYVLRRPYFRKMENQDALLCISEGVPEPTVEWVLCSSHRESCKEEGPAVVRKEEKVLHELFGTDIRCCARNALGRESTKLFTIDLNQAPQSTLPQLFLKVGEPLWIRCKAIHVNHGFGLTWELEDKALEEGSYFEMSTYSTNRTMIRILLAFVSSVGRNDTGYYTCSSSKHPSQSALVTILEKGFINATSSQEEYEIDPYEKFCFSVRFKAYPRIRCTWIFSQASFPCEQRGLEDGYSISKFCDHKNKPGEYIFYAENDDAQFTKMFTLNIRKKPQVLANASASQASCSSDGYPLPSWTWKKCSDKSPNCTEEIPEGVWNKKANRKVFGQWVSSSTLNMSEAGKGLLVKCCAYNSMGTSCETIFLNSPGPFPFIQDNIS


What was measured:
recombinant CD135 (Flt3) [1] = target: recombinant CD135 (Flt3) (UniProt Q00342); assay: ELISA
recombinant CD135 (Flt3) [2] = target: T1, recombinant CD135 (Flt3); assay: ELISA

Row | Kd (recombinant CD135 (Flt3) [1]) [nM] | Kd (recombinant CD135 (Flt3) [2]) [nM] | Molecule
1 | 0.16 |  | Flt3L-SA (murine Flt3L fused at its C terminus to murine serum albumin through a (G4S)2 linker)
2 |  | 0.16 | native, soluble murine Flt3L (WT) (ligand, mouse, UniProt P49772 27-189, looked up) GTPDCYFSHSPISSNFKVKFRELTDHLLKDYPVTVAVNLQDEKHCKALWSLFLAQRWIEQLKTVAGSKMQTLLEDVNTEIHFVTSCTFQPLPECLRFVQTNISHLLKDTCTQLLALKPCIGKACQNFSRCLEVQCQPDSSTLLPPRSPIALEATELPEPRPRQ
